# Columns and labels:
# [1] = biological target: T1, anti-CD28 scFv wt Vh-linker-Vl (biotinylated (site not stated)); experiment: phage ELISA on captured scFv, CD28 as competitor
# T1 construct: captured on neutravidin plates
# [2] = biological target: T2, anti-CD28 scFv (SEQ ID NO: 35); experiment: phage binding ELISA, scFv on plate, CD28 as competitor
# T2 construct: also called anti-CD28 scFv wt Vh-linker-Vl
# T2 sequence (scFv, as listed by the source): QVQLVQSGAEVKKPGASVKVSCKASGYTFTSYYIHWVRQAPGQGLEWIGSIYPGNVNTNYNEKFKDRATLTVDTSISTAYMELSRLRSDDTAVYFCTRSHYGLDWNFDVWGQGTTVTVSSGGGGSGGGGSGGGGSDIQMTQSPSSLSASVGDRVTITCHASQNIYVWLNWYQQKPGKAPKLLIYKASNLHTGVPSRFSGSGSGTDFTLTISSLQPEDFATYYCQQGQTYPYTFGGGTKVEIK
# Description: Clonal phage were harvested as crude supernatants and screened via standard enzyme linked immunosorbent assays (ELISAs). […] Prior to the addition of clonal phage, wells were incubated with blocking buffer and CD28 soluble protein or blocking buffer alone. Without washing or aspirating, clonal phage supernatants were then added to the wells and incubated for a short time. Wells were then washed followed by detection of bound phage using a horse radish peroxidase conjugated anti-M13 antibody.
# T1 sequence (scFv, as listed by the source): as above
binder,measurement,setting,value
IDWCPTAGWTYCWF [Phage-1513],CD28 scFv signal in presence of CD28,[1],0.075
IHLCHWVPWIKCSH [Phage-1664],CD28 scFv signal in presence of CD28,[2],2.51

# Reference: US20260274955A1 (JANUX THERAPEUTICS, published 2026)
